Results: article PMC3169560 (PLoS Pathogens, 2011)

Target: T1, HIV-1 Env glycoprotein complex (gp120/gp41) with full-length gp41, on HIV-1 particles of proviral clone R9 … (HIV-1 group M subtype B, proviral clone …)
T1 construct: also called WT; wild-type HIV-1; copies: 3 + 3
Test: immunofluorescence imaging of antibody binding to single immobilised virions; IMMATURE, protease-defective particles (R9.PR- or R9Tr712.PR-) with GFP-Vpr on poly-D-lysine coated dishes; unfixed virions incubated with IgG or CD4-IgG2 (0.25 µg/mL) for 2 h at room temperature, fixed in 2% paraformaldehyde, Cy5 anti-human IgG, confocal microscopy; median average Cy5 intensity per GFP-positive particle; CD4-IgG2 results …
Settings: one partner purified

B1: HIV-1 gp41 mAb 4E10 (full-length IgG) (antibody, V domains shown)
VH: QVQLVQSGAEVKRPGSSVTVSCKASGGSFSTYALSWVRQAPGRGLEWMGGVIPLLTITNYAPRFQGRITITADRSTSTAYLELNSLRPEDTAVYYCAREGTTGWGWLGKPIGAFAHWGQGTLVTVSS
VL: EIVLTQSPGTQSLSPGERATLSCRASQSVGNNKLAWYQQRPGQAPRLLIYGASSRPSGVADRFSGSGSGTDFTLTISRLEPEDFAVYYCQQYGQSLSTFGQGTKVEVK
notes: copies: 2 + 2
In the case of B1, the “fold increase in binding to immature over mature virions, particles with an average intensity above 50 a.u.” value is reported as 6 fold and the “median average intensity per particle, PR- image over wild-type image” value is reported as 1.4 fold.
